Source: patent US20240133885A1 (UNIVERSITY OF SOUTHERN CALIFORNIA, published 2024)
Where two headings read alike, the source gives them in different places.

What was measured:
[1] = molecular target: T1, FMC63-(vL-vH)-Myc-BBz-T2A-Pac; assay: NLuc assay, supernatant on CAR T cells
T1 construct: Entry = whole construct incl; T2A-Pac; also called FMC63-CAR; CD19 (FMC63)-CAR

[2] = molecular target: T2, Luc90-(vL-vH)-MYC-CD28z-T2A-Pac; assay: NLuc assay, supernatant on transfected 293FT cells
T2 construct: Entry = whole construct incl; T2A-Pac; also called SLAMF7/CS1-specific CAR; 031915-F03

[3] = molecular target: T3, CD324-SC10-6-(vL-vH)-MYC-BBz-T2A-PAC; assay: NLuc assay, supernatant on transfected 293FT cells
T3 construct: Entry = whole construct incl; T2A-PAC; also called CDH1/CD324-specific CAR; 052516-B07

[4] = molecular target: T4, CD324-hSC10-17-(vL-vH)-MYC-BBz-T2A-PAC; assay: NLuc assay, supernatant on transfected 293FT cells
T4 construct: Entry = whole construct incl; T2A-PAC; also called CDH1/CD324-specific CAR; 052516-A07

[5] = molecular target: T5, CD200R-huDx182-(vL-vH)-Myc-BBz-T2A-PAC; assay: NLuc assay, supernatant on transfected 293FT cells
T5 construct: Entry = whole construct incl; T2A-PAC; also called CD200R-specific CAR

[6] = molecular target: T6, J6MO-(vL-vH)-MYC-28z-T2A-Pac; assay: NLuc assay, supernatant on NK92MI cells expressing the CAR
T6 construct: CAR on NK92MI cells; Entry = whole construct incl; T2A-Pac; also called BCMA-specific CAR; 031915-G02

[7] = molecular target: T2, Luc90-(vL-vH)-MYC-CD28z-T2A-Pac; assay: NLuc assay, supernatant on 293FT cells transfected with the CAR
[8] = molecular target: T1, FMC63-(vL-vH)-Myc-BBz-T2A-Pac; assay: as above
[9] = molecular target: T3, CD324-SC10-6-(vL-vH)-MYC-BBz-T2A-PAC; assay: as above
[10] = molecular target: T4, CD324-hSC10-17-(vL-vH)-MYC-BBz-T2A-PAC; assay: as above
[11] = molecular target: T1, FMC63-(vL-vH)-Myc-BBz-T2A-Pac; assay: as above; remark: listed apart in the source
CD19 [12] = molecular target: T7, CD19 (human, UniProt P15391 20-556); assay: Luc assay, supernatant on HL60 cells (stated CD19-, CD20-, CD33+)
T7 construct: whole, on cells; Endogenous antigen of the cell lines tested (RAJI stated CD19 positive); also called human CD19

CD19 [13] = molecular target: T7, CD19; assay: Luc assay, supernatant on Raji cells (stated CD19+, CD20+, CD33-)
CD19 [14] = molecular target: T7, CD19; assay: Luc assay, supernatant on BC1 cells
CD19 [15] = molecular target: T7, CD19; assay: Luc assay, supernatant on RAJI cells
CD19 [16] = molecular target: T7, CD19; assay: Luc assay, supernatant on BC-3 cells
CD19 [17] = molecular target: T7, CD19; assay: Luc assay, supernatant on MM1S cells
CD19 [18] = molecular target: T7, CD19; assay: Luc assay, supernatant on U266 cells
CD19 [19] = molecular target: T7, CD19; assay: Luc assay, supernatant on BV173 cells
CD19 [20] = molecular target: T7, CD19; assay: Luc assay, supernatant on JSC-1 cells
CD19 [21] = molecular target: T7, CD19; assay: Luc assay, supernatant on BCBL-1 cells

B1: FLAG-CD19-ECD-GGSG-NLuc-AcV5 (receptor)
chain: not shown
notes: Entry = whole insert incl; CD19 signal peptide, FLAG tag, linker, NLuc, AcV5; also called CD19-GGSG-NLuc-AcV5
fold NLuc value over uninfected or control CAR cells [1]: > 85 fold | binding result [2]: no binding | binding result [3]: no binding | binding result [4]: no binding | binding result [5]: no binding | binding result [6]: no binding | Mean Luc activity [7]: 3830 | Mean Luc activity [8]: 237000 | Mean Luc activity [9]: 16400 | Mean Luc activity [10]: 5190 | Mean Luc activity [11]: 237000

B2: CDH1-ECD-GGSG-NLuc-4xFlag-2xStreptag-8xHis-T2A-Pac (receptor)
chain: not shown
notes: Entry = whole insert incl; T2A-Pac; also called 062816-G02
Mean Luc activity [9]: 2.9e+06 | Mean Luc activity [10]: 2.02e+06

B3: SLAMF7-CS1-ECD-GGSG-NLuc-4xFlag-2xStreptag-8xHis-T2A-Pac (receptor)
chain: not shown
notes: Entry = whole insert incl; T2A-Pac; also called 062816-A01
Mean Luc activity [7]: 100000

B4: CD8SP-CD19-4G7-Mlu-GSG-NLuc-AcV5 (scFv)
scFv: not shown
notes: Entry = whole insert incl. signal peptide; also called 021417-Z04
Mean Luc activity (CD19 [12]): 4320 | Mean Luc activity (CD19 [13]): 380000

B5: CD8SP-CD19-4G7-(vL-vH)-GGSG-NLuc-4xFLAG-x2STREP-8xHis-T2A-PAC (scFv)
scFv: not shown
notes: Entry = whole insert incl. signal peptide and T2A-PAC; also called 062916-C08
Mean Luc activity (CD19 [14]): 52300 | Mean Luc activity (CD19 [15]): 397000 | Luc activity (CD19 [16]): 6180 | Luc activity (CD19 [17]): 10400 | Luc activity (CD19 [18]): 6540 | Luc activity (CD19 [19]): 121000 | Luc activity (CD19 [20]): 13300 | Luc activity (CD19 [21]): 14000

B6: CD8SP-hCD19-Bu12-(vL-vH)-GGSG-NLuc-AcV5 (scFv)
scFv: not shown
notes: Entry = whole insert incl. signal peptide; also called 021417-T05
Mean Luc activity (CD19 [12]): 1610 | Mean Luc activity (CD19 [13]): 358000
